Source: paper PMC9259969, “Biophysical Screening Pipeline for Cryo-EM Grid Preparation of Membrane Proteins” (Frontiers in Molecular Biosciences, 2022)

B1: Recombinant human ENTH domain from epsin-1 (hENTH) (protein)
chain: NIVHNYSEAEIKVREATSNDPWGPSSSLMSEIADLTYNVVAFSEIMSMIWKRLNDHGKNWRHVYKAMTLMEYLIKTGSERVSQQCKENMYAVQTLKDFQYVDRDGKDQGVNVREKAKQLVALLRDEDRLREER
B2: TolC (natural protein, Escherichia coli, UniProt P02930 23-493, looked up)
chain: ENLMQVYQQARLSNPELRKSAADRDAAFEKINEARSPLLPQLGLGADYTYSNGYRDANGINSNATSASLQLTQSIFDMSKWRALTLQEKAAGIQDVTYQTDQQTLILNTATAYFNVLNAIDVLSYTQAQKEAIYRQLDQTTQRFNVGLVAITDVQNARAQYDTVLANEVTARNNLDNAVEQLRQITGNYYPELAALNVENFKTDKPQPVNALLKEAEKRNLSLLQARLSQDLAREQIRQAQDGHLPTLDLTASTGISDTSYSGSKTRGAAGTQYDDSNMGQNKVGLSFSLPIYQGGMVNSQVKQAQYNFVGASEQLESAHRSVVQTVRSSFNNINASISSINAYKQAVVSAQSSLDAMEAGYSVGTRTIVDVLDATTTLYNAKQELANARYNYLINQLNIKSALGTLNEQDLLALNNALSKPVSTNPENVAPQTPEQNAIADGYAPDSPAPVVQQTSARTTTSNGHNPFRN
notes: TolC, outer membrane protein of Escherichia coli; molecular weight of 161.7 kDa printed for the trimeric state; The protomer is written here; In DDM micelles in the assays; also called integral membrane protein TolC; source: E. coli C43(DE3)ΔAcrAB, solubilised in DDM, purified (HiTrap HP with imidazole elution, SEC)

How the values were obtained:
Q9Y6I3 = test: mass photometry; hENTH at 100 nM in the presence of 200 µM PI(4,5)P2; Refeyn OneMP; control: buffer with 200 µM PI(4,5)P2; details: other: mass photometry
[1] = biological target: the molecule itself; test: mass photometry; 150 nM TolC in the presence of 0.003% DDM; controls with 0.03% and 0.003% DDM without protein

Protein	N with PI(4,5)P2 (Q9Y6I3)	binding result [1]
B1	corresponding to a hexamer of hENTH in the presence of 200 µM PI(4,5)P2	–
B2	–	binds
